Assay results taken from patent publication US20200262877A1, “ION CHANNEL-BINDING PEPTIDES AND METHODS OF USE THEREOF” (priority 2017, published 2020).

Columns and labels:
[1] = biological target: T1, Kv1.2 (Homo sapiens, UniProt P16389); assay: cell-based; type: cell-based; details: 100% = no change, <100% = inhibition
T1 construct: host or cells: HEK293 or CHO
How it was run: (§1)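 Transfected HEK293 or CHO cells were exposed for at least 5 min to peptides at 200 nM and 20 μM final, tested in duplicate, in HEPES-buffered physiological saline. Activation was taken as peptide-plus-agonist current over control current ×100, and inhibition as 1 minus that ratio ×100. Each channel's control was its own reference compound.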

[2] = biological target: T2, Kv1.1 (Homo sapiens, UniProt Q09470); assay: cell-based; type: cell-based; details: 100% = no change, <100% = inhibition
T2 construct: host or cells: HEK293 or CHO
How it was run: as §1

[3] = biological target: T3, Kv1.3 (Homo sapiens, UniProt P22001); assay: cell-based; type: cell-based; details: 100% = no change, <100% = inhibition
T3 construct: host or cells: HEK293 or CHO
How it was run: as §1

[4] = biological target: T4, Kir2.1 (Homo sapiens, UniProt P63252); assay: Ion channel panel (IonWorks Barracuda): Kir2.1; type: cell-based; details: 100% = no change, <100% = inhibition
T4 construct: host or cells: HEK293 or CHO
How it was run: as §1

[5] = biological target: T5, 5HT3a (Homo sapiens, UniProt P46098); assay: Ion channel panel (IonWorks Barracuda): 5HT3a; type: cell-based
T5 construct: host or cells: HEK293 or CHO
T5 sequence (P46098 whole entry, looked up): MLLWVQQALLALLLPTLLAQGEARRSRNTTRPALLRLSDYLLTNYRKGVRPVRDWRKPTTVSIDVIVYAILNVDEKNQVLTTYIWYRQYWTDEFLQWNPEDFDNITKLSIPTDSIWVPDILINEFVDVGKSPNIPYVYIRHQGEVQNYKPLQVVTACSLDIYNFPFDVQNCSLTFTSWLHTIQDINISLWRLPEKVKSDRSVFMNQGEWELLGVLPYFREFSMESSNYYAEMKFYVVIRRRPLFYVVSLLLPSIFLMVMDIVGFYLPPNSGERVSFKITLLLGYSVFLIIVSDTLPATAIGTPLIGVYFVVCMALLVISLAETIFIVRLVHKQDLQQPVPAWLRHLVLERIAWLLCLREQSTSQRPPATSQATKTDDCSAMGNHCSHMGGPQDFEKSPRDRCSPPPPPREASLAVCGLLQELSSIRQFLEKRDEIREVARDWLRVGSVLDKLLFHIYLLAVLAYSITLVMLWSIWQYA
How it was run: as §1

[6] = tested on: GABA; assay: Ion channel panel (IonWorks Barracuda): GABA; type: cell-based; details: 100% = no change, <100% = inhibition
How it was run: as §1

[7] = biological target: hERG (Homo sapiens, UniProt Q12809); assay: in vitro; details: 100% = no change, <100% = inhibition
How it was run: as §1

[8] = biological target: Nav1.5 (Homo sapiens, UniProt Q14524); assay: in vitro; details: 100% = no change; for Activity of Nav1.5 with peptide, expressed as a percentage of the reference compound: peptide at 0.2 μM; for Activity of Nav1.5 with peptide (percentage of the reference compound): peptide at 20 μM
Nav1.5, sequence (Q14524 whole entry): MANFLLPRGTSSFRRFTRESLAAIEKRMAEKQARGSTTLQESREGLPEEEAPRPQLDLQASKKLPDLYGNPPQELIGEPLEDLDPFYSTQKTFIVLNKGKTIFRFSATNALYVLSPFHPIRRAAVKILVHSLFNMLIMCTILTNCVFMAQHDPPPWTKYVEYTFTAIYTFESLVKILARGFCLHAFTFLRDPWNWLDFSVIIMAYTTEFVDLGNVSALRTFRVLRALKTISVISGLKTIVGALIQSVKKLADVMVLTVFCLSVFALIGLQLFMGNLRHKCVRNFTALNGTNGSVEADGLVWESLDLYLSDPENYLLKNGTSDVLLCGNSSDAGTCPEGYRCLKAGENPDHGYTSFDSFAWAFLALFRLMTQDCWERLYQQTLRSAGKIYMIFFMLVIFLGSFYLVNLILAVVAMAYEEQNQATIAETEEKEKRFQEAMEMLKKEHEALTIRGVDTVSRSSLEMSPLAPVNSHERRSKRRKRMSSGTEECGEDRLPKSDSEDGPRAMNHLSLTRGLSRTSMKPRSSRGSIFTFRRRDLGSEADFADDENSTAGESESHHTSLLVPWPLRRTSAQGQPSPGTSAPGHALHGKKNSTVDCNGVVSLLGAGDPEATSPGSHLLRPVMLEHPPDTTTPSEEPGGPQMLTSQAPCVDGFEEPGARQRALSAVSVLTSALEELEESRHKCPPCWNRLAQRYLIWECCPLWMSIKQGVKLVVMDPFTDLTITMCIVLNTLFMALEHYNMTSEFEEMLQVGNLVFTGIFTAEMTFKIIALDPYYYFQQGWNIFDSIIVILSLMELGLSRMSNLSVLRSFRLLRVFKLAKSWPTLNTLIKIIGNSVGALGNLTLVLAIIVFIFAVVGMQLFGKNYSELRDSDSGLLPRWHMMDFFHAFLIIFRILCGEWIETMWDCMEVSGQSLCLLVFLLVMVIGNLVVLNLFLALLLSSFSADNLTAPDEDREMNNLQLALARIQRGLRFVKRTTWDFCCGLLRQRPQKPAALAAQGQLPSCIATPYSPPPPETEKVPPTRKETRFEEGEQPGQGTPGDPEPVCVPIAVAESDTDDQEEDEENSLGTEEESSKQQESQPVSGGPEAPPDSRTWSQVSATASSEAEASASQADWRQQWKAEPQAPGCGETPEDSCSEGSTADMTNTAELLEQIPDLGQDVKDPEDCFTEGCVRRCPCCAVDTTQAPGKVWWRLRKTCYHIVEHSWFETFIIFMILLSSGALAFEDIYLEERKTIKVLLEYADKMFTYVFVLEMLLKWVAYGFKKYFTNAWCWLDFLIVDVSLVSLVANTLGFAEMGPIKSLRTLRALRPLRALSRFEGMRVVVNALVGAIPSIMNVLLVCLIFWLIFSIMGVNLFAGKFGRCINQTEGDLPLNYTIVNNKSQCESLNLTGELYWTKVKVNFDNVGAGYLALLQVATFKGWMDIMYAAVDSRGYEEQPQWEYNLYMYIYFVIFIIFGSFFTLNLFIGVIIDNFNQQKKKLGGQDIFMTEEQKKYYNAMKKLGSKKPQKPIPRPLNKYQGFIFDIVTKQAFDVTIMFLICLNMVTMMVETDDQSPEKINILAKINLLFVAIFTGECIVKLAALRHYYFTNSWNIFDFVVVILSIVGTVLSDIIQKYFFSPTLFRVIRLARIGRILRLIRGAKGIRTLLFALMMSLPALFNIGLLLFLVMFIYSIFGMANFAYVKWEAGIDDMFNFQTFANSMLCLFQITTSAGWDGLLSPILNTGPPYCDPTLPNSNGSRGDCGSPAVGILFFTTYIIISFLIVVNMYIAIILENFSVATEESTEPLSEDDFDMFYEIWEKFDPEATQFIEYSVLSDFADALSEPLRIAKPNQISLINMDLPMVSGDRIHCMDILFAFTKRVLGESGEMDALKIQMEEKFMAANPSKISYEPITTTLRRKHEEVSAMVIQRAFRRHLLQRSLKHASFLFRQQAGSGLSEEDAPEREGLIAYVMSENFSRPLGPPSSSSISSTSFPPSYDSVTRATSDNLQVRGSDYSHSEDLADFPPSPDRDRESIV
How it was run: as §1

[9] = biological target: T6, NR2A (Homo sapiens, UniProt Q12879); assay: Ion channel panel (IonWorks Barracuda): NR2A; type: cell-based; details: 100% = no change, <100% = inhibition
T6 construct: host or cells: HEK293 or CHO
How it was run: as §1

[10] = biological target: T7, TRPA1 (Homo sapiens, UniProt O75762); assay: Ion channel panel (IonWorks Barracuda): TRPA1; type: cell-based; details: 100% = no change, <100% = inhibition
T7 construct: host or cells: HEK293 or CHO
How it was run: as §1

[11] = biological target: T8, α4β2 (Homo sapiens, UniProt P17787+P43681); assay: Ion channel panel (IonWorks Barracuda): α4β2; type: cell-based; details: 100% = no change, <100% = inhibition
T8 construct: host or cells: HEK293 or CHO
T8 sequence (P43681 29-627): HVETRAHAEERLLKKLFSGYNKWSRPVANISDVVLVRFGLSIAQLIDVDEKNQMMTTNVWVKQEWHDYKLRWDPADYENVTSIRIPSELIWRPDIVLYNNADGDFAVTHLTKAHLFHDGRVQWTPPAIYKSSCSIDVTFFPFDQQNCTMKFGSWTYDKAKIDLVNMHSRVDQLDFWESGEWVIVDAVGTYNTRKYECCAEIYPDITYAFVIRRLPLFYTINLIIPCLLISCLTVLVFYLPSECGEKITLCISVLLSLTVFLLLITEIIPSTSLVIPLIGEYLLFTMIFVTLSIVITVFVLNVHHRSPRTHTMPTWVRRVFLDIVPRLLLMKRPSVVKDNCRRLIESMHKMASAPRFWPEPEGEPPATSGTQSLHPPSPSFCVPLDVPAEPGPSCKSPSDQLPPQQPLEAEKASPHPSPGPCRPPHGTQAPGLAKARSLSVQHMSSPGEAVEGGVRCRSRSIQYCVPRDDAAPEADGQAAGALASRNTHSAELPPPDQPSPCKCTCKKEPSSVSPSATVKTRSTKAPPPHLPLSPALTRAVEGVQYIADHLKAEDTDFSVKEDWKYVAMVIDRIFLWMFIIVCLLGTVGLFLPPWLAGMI
T8 sequence (P17787 26-502): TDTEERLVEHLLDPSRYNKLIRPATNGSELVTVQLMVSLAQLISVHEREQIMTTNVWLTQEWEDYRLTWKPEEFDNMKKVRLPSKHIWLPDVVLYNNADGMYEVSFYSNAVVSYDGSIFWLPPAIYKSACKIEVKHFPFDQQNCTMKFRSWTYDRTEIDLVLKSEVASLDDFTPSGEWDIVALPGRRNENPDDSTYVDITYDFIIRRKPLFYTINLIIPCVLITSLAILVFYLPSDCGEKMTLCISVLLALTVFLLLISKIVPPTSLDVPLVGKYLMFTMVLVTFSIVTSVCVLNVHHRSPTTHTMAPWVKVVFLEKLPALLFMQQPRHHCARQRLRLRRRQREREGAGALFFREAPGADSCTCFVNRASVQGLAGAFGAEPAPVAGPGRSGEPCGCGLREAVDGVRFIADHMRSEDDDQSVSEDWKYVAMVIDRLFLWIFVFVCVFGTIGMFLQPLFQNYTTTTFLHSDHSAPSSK
How it was run: as §1

[12] = biological target: T9, TRPV1 (Homo sapiens, UniProt Q8NER1); assay: Ion channel panel (IonWorks Barracuda): TRPV1; type: cell-based; details: 100% = no change, <100% = inhibition
T9 construct: host or cells: HEK293 or CHO
How it was run: as §1

[13] = biological target: T10, Nav1.7 (Homo sapiens, UniProt Q15858); assay: cell-based; type: cell-based; details: 100% = no change; for Activity of Nav1.7 with peptide, expressed as a percentage of the reference compound: peptide at 0.2 μM; for Activity of Nav1.7 with peptide (percentage of the reference compound): peptide at 20 μM
T10 construct: host or cells: HEK293 or CHO
T10 sequence (Q15858 whole entry): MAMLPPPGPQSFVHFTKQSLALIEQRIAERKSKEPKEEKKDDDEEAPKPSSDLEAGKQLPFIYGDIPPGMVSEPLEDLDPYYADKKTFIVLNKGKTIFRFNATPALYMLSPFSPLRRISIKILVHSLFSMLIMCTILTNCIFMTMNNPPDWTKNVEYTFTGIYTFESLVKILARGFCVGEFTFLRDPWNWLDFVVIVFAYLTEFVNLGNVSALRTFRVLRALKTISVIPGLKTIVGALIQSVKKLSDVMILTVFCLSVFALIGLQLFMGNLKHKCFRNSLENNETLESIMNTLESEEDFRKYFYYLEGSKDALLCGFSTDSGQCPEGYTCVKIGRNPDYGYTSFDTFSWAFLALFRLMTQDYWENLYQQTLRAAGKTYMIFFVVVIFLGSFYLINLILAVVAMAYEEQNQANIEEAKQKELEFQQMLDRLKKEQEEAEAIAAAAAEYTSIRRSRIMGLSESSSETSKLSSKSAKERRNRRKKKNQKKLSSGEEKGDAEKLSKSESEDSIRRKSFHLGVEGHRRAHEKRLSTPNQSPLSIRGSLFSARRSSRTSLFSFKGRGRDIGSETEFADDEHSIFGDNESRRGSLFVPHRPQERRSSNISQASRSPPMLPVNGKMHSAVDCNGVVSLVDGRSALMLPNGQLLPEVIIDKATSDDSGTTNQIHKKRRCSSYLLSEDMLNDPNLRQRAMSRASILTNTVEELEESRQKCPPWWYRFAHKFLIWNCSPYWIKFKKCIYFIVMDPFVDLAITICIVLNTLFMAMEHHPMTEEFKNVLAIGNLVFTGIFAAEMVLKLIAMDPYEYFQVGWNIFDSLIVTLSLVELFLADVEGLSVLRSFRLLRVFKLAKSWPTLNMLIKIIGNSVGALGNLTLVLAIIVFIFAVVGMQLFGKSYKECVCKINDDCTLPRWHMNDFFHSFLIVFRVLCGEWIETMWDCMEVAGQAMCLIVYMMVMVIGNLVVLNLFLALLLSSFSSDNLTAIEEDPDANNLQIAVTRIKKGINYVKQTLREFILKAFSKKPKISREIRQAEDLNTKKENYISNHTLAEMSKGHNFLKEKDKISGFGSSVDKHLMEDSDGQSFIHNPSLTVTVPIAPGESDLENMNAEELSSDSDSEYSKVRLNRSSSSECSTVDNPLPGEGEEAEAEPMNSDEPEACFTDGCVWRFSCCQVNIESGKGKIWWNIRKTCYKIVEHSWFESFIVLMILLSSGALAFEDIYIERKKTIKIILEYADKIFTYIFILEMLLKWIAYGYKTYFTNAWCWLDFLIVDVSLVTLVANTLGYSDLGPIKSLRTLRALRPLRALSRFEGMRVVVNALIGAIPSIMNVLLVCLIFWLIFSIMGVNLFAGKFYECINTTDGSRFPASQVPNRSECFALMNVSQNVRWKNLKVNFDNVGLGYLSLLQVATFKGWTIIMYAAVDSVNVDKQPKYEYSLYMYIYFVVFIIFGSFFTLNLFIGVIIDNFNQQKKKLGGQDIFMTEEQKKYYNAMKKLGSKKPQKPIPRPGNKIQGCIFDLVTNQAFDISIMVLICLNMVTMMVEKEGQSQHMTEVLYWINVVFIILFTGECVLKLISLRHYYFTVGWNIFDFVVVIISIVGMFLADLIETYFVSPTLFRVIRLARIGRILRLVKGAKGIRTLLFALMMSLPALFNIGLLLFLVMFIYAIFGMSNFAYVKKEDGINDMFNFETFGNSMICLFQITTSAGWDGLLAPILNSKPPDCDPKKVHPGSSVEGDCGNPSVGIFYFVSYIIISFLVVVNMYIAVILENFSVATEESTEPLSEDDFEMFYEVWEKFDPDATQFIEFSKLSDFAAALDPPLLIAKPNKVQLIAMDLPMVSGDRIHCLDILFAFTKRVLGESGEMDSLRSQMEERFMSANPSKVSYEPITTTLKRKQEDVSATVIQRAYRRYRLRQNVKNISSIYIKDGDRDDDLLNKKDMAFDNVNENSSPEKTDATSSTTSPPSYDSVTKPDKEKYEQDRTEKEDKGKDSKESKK

[14] = biological target: T11, Kv2.1 (Homo sapiens, UniProt Q14721); assay: cell-based; details: 100% = no change, <100% = inhibition
T11 construct: host or cells: HEK293 or CHO
How it was run: as §1

[15] = biological target: T12, Cav2.1 (Homo sapiens, UniProt O00555); assay: cell-based; details: 100% = no change, <100% = inhibition
T12 construct: host or cells: HEK293 or CHO
How it was run: as §1

[16] = biological target: T13, Cav2.2 (Homo sapiens, UniProt Q00975); assay: cell-based; details: 100% = no change, <100% = inhibition
T13 construct: host or cells: HEK293 or CHO
How it was run: as §1

[17] = biological target: T14, NR2B (Homo sapiens, UniProt Q13224); assay: Ion channel panel (IonWorks Barracuda): NR2B; type: cell-based; details: 100% = no change, <100% = inhibition
T14 construct: host or cells: HEK293 or CHO
How it was run: as §1

[18] = biological target: T15, α3β4 (Homo sapiens, UniProt P30926+P32297); assay: Ion channel panel (IonWorks Barracuda): α3β4; type: cell-based; details: 100% = no change, <100% = inhibition
T15 construct: host or cells: HEK293 or CHO
How it was run: as §1

[19] = first of two Nav1.5 columns (probably TP1)
[20] = second of two Nav1.5 columns (probably TP2)
[21] = first of two Nav1.7 columns (probably TP1)
[22] = second of two Nav1.7 columns (probably TP2)

14 (GSDRDSCIDKSRCSKYGYYQECQDCCKKAGHNGGTCMFFKCKCA) [compound 14]
Activity of Kv1.2 with peptide, expressed as a percentage of the reference compound ([1]; peptide at 0.2 μM): 73% | Activity of Kv1.2 with peptide (percentage of the reference compound) ([1]; peptide at 20 μM): 34% | Activity of Kv1.1 with peptide, expressed as a percentage of the reference compound ([2]; peptide at 0.2 μM): 79% | Activity of Kv1.1 with peptide (percentage of the reference compound) ([2]; peptide at 20 μM): 99% | Activity of Kv1.3 with peptide, expressed as a percentage of the reference compound ([3]; peptide at 0.2 μM): 87% | Activity of Kv1.3 with peptide (percentage of the reference compound) ([3]; peptide at 20 μM): 82% | Activity of Kir2.1 with peptide, expressed as a percentage of the reference compound ([4]; peptide at 0.2 μM): 95% | Activity of Kir2.1 with peptide (percentage of the reference compound) ([4]; peptide at 20 μM): 79% | Activity of 5HT3a with peptide (percentage of the reference compound) [5]: 78% | Activity of 5HT3a with peptide, expressed as a percentage of the reference compound [5]: 96% | Activity of GABA with peptide, expressed as a percentage of the reference compound ([6]; peptide at 0.2 μM): 107% | Activity of GABA with peptide (percentage of the reference compound) ([6]; peptide at 20 μM): 120% | Activity of hERG with peptide, expressed as a percentage of the reference compound ([7]; peptide at 0.2 μM): 82% | Activity of hERG with peptide (percentage of the reference compound) ([7]; peptide at 20 μM): 1% | Activity of Nav1.5 with peptide, expressed as a percentage of the reference compound [8, 19]: 85% | Activity of Nav1.5 with peptide, expressed as a percentage of the reference compound [8, 20]: 82% | Activity of Nav1.5 with peptide (percentage of the reference compound) [8, 19]: 94% | Activity of Nav1.5 with peptide (percentage of the reference compound) [8, 20]: 97% | Activity of NR2A with peptide, expressed as a percentage of the reference compound ([9]; peptide at 0.2 μM): 107% | Activity of NR2A with peptide (percentage of the reference compound) ([9]; peptide at 20 μM): 95% | Activity of TRPA1 with peptide, expressed as a percentage of the reference compound ([10]; peptide at 0.2 μM): 106% | Activity of TRPA1 with peptide (percentage of the reference compound) ([10]; peptide at 20 μM): 66% | Activity of a4b2 with peptide, expressed as a percentage of the reference compound ([11]; peptide at 0.2 μM): 106% | Activity of a4b2 with peptide (percentage of the reference compound) ([11]; peptide at 20 μM): 81% | Activity of TRPV1 with peptide, expressed as a percentage of the reference compound ([12]; peptide at 0.2 μM): 133% | Activity of TRPV1 with peptide (percentage of the reference compound) ([12]; peptide at 20 μM): 92% | Activity of Nav1.7 with peptide, expressed as a percentage of the reference compound [13, 21]: 83% | Activity of Nav1.7 with peptide, expressed as a percentage of the reference compound [13, 22]: 89% | Activity of Nav1.7 with peptide (percentage of the reference compound) [13, 21]: 72% | Activity of Nav1.7 with peptide (percentage of the reference compound) [13, 22]: 65% | Activity of Kv2.1 with peptide, expressed as a percentage of the reference compound ([14]; peptide at 0.2 μM): 109% | Activity of Kv2.1 with peptide (percentage of the reference compound) ([14]; peptide at 20 μM): 93% | Activity of Cav2.1 with peptide, expressed as a percentage of the reference compound ([15]; peptide at 0.2 μM): 118% | Activity of Cav2.1 with peptide (percentage of the reference compound) ([15]; peptide at 20 μM): 111% | Activity of Cav2.2 with peptide, expressed as a percentage of the reference compound ([16]; peptide at 0.2 μM): 129% | Activity of Cav2.2 with peptide (percentage of the reference compound) ([16]; peptide at 20 μM): 95% | Activity of NR2B with peptide, expressed as a percentage of the reference compound ([17]; peptide at 0.2 μM): 123% | Activity of NR2B with peptide (percentage of the reference compound) ([17]; peptide at 20 μM): 72% | Activity of a3b4 with peptide, expressed as a percentage of the reference compound ([18]; peptide at 0.2 μM): 99% | Activity of a3b4 with peptide (percentage of the reference compound) ([18]; peptide at 20 μM): 93%
